{"source": "patent US20190284246A1", "key": {"[1]": {"biological_target": "ΔN28-CofB (enterotoxigenic Escherichia coli (ETEC))", "assay": "ITC, peptide titrated into ΔN28-CofB"}, "[2]": {"biological_target": "ΔN28-CofB (enterotoxigenic Escherichia coli (ETEC))", "assay": "ITC"}, "[3]": {"biological_target": "ΔN28-CofB (enterotoxigenic Escherichia coli (ETEC))", "assay": "ITC, CofJ titrated into ΔN28-CofB, 25° C."}}, "data": [{"substance": "CofJ^1-24 peptide", "values": [{"measurement": "Kd", "setting": "[1]", "result": 4000, "unit": "nM"}]}, {"substance": "CofJ^1-24-GCN4 inhibitory peptide (designed binder)", "values": [{"measurement": "Kd", "setting": "[1]", "result": 40, "unit": "nM"}, {"measurement": "fold stronger binding affinity than CofJ to ΔN28-CofB", "setting": "[2]", "result": 5, "unit": "fold"}]}, {"substance": "CofJ^4-16 peptide", "values": [{"measurement": "Kd", "setting": "[1]", "result": 4000, "unit": "nM"}]}, {"substance": "CofJ^4-16-GCN4 inhibitory peptide (designed binder)", "values": [{"measurement": "Kd", "setting": "[1]", "result": 80, "unit": "nM"}, {"measurement": "fold stronger binding affinity than CofJ to ΔN28-CofB", "setting": "[2]", "result": 2.5, "unit": "fold"}]}, {"substance": "secretory protein CofJ", "values": [{"measurement": "Kd", "setting": "[3]", "result": 200, "unit": "nM"}]}]}
